# Biological target: pag_bacan pagA (UniProt P13423)
row,Substance,effect of a mutation on the interaction
1,Lethal factor (Bacillus anthracis) (from UniProt P15917) D169A,decreasing interaction
2,Lethal factor (Bacillus anthracis) (from UniProt P15917) D139A,decreasing interaction
3,Lethal factor (Bacillus anthracis) (from UniProt P15917) D169K,decreasing interaction
4,Lethal factor (Bacillus anthracis) (from UniProt P15917) K176A,decreasing interaction
5,Lethal factor (Bacillus anthracis) (from UniProt P15917) Y141K,decreasing interaction
6,Lethal factor (Bacillus anthracis) (from UniProt P15917) E168K,decreasing interaction
7,Lethal factor (Bacillus anthracis) (from UniProt P15917) E168A,decreasing interaction
8,Lethal factor (Bacillus anthracis) (from UniProt P15917) N173A,decreasing interaction

# Reference: IntAct's records for PubMed 16293620
